Where no end group is shown, it is not given here. [ ]: non-standard residue; d: D form. 5‑Cl‑benzothiazol‑2‑yl side chain = not defined here; 6‑Cl‑benzothiazol‑2‑yl side chain = not defined here; Phe(3-CF3) = N[C@@H](Cc1cccc(C(F)(F)F)c1)C(=O)O; Phe(3,5-F2) = N[C@@H](Cc1cc(F)cc(F)c1)C(=O)O; Phe(3-CN) = N#Cc1cccc(C[C@H](N)C(=O)O)c1; Phe(3-Cl) = N[C@@H](Cc1cccc(Cl)c1)C(=O)O; Phe(4-Cl) = N[C@@H](Cc1ccc(Cl)cc1)C(=O)O; Phe(2-Cl) = N[C@@H](Cc1ccccc1Cl)C(=O)O; 2Nal = N[C@@H](Cc1ccc2ccccc2c1)C(=O)O; Phe(2-F) = N[C@@H](Cc1ccccc1F)C(=O)O; hPhe = N[C@@H](CCc1ccccc1)C(=O)O
What follows are binders tested against human DCN1 (residues 58–259), N-terminal His6 tag (human, UniProt Q96GG9 58-259) (assay: FP).
Sequence of human DCN1 (residues 58–259), N-terminal His6 tag (Q96GG9 58-259): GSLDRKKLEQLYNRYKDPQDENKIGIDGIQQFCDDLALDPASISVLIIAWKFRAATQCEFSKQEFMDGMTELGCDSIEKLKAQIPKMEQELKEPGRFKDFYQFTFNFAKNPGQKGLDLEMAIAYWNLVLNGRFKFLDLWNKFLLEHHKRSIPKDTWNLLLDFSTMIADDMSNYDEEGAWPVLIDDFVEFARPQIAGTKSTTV

First: MIK [UBC12 tripeptide (10)]
Second: [Phe(2-F)]IKL [analog of 11 with o-F substitution of the phenyl]
The Ki of the first is higher: over 1000 µM for the first, 125 µM for the second. The second binds more tightly here.

Going from [hPhe]IKL [compound 12 (tetrapeptide 9 with Met1 replaced by homophenylalanine)] to [Phe(2-Cl)]IKL [compound 13 (11 with Cl at the ortho position of the phenyl ring)], the Ki falls from 313 µM to 143 µM (2.2-fold). The second binds more tightly here.

Compared with [Phe(3-CN)]IKL [analog of 11 containing an m-CN substituted phenyl], [5‑Cl‑benzothiazol‑2‑yl side chain]IKL (not fully specified; reading uncertain) [compound 25 (24 with 5-Cl on the benzothiazol-2-yl)] is lower in Ki: over 1000 µM for the first, 2.5 µM for the second. The second binds more tightly here.

Going from MIKLFSLKQ [UBC12 peptide 4] to FIKL [compound 11 (tetrapeptide 9 with Met1 replaced by phenylalanine)], the Ki rises from 6.5 µM to 41 µM (6.3-fold). The first binds more tightly here.

Compared with MIKLFSLKQQK [UBC12 peptide 2 (peptide 1 without Lys12)], MIKLF [UBC12 peptide 8] is 46-fold higher in Ki: 2.4 µM for the first, 111 µM for the second.

Going from MIKLFS [UBC12 peptide 7] to YIKL [analog of 11 with p-OH substitution of the phenyl], the Ki rises from 83 µM to 386 µM (4.7-fold). The first binds more tightly here.

Going from MIKLFSLK [UBC12 peptide 5] to [Phe(3,5-F2)]IKL [analog of 11 with 3,5-di-F substitution of the phenyl], the Ki rises from 9.2 µM to 82 µM (8.9-fold). The first binds more tightly here.

First: [Phe(4-Cl)]IKL [compound 15 (11 with Cl at the para position of the phenyl ring)]
Second: [6‑Cl‑benzothiazol‑2‑yl side chain]IKL (not fully specified; reading uncertain) [compound 26 (24 with 6-Cl on the benzothiazol-2-yl)]
The Ki of the first is 2100-fold higher: 71 µM for the first, 0.034 µM for the second.

Going from [Phe(3-Cl)]IKL [compound 14 (11 with Cl at the meta position of the phenyl ring)] to MIKLFSL [UBC12 seven-residue peptide (6)], the Ki falls from 45 µM to 28 µM (1.6-fold). The second binds more tightly here.

Compared with MIKLFSLKQQ [UBC12 peptide 3], [Phe(3-CF3)]IKL [analog of 11 containing an m-CF3 substituted phenyl] is higher in Ki: 6 µM for the first, over 1000 µM for the second. The first binds more tightly here.

[2Nal]IKL [compound 23 (11 with the phenyl replaced by naphthalen-2-yl)] was tested, and the Ki was 3.8 µM.

Source: article PMC5658359 (2017)
